Substitutions are numbered along the chain they refer to. In names and notes the source's numbering stands. Like-named read-outs stand apart in the source and are kept apart here.

The target in assay [1] is T1, HLA-DR on BJAB cells (human (endogenous in BJAB), UniProt P01903 26-254; P01911 30-266). The assay is described as follows: FACS.
Assay [2] deals with T1, HLA-DR on BJAB cells. The assay is described as follows: FACS. This is another data set of the same source.
The target in assay [3] is T2, recombinant HLA-DR (uncleaved) (human, UniProt P01903 28-206; P01911 30-219). The assay is described as follows: BLI; apparent.
For assay [4], the target named is T2, recombinant HLA-DR (uncleaved). Kind of assay: BLI; apparent. This is another data set of the same source.
For assay [5] the target is unchanged. The assay is described as follows: BLI; apparent. This is another data set of the same source. On the technique in general: In BLI a coated tip is dipped into the sample, and binding shifts an interference pattern.
Assay [6] has as its target T1, HLA-DR on BJAB cells. The assay is described as follows: FACS. The source holds these as a separate data set. On the technique in general: In flow cytometry, cells or beads pass a laser one at a time.

B1: parental 44H10 IgG (antibody, V domains shown)
VH: QVQLKESGPGLVAPSQSLSITCTVSGFSLTSYGVHWVRQPPGKGLEWLGVIWAGGSINYNSALMSRLSISKDNFKSQVFLKMSSLQTDDTAMYYCARAYGDYVHYAMDYWGQGTSVTASS
VL: DIQMTQSPSSLSASLGQRVSLTCRASQEISGYLTWLQQKPDGTIKRLVYAASTLDSGVPKRFSGSRSGSDYSLTISSLESEDFADYYCLQYTNYPLTFGAGTKLELK
In general, EC50 refers to the concentration needed to bring the measured effect to its halfway point. Read a low EC50 as greater potency. As to B1, the EC50 in assay [1] is 0.8 nM; in assay [2] it was 1 nM. Further, in assay [3], the Kd amounted to 2.2 nM.

B2: humanized 44H10 version 17 IgG (antibody, V domains shown)
VH: QVTLKESGPVLVKPTETLTLTCTVSGFSLTSYGVHWIRQPPGKALEWLAVIWAGGSISYSTSLMSRLTISKDTSKSQVVLTMTNMDPVDTATYYCARAYGDYVHYAMDYWGQGTLVTVSS
VL: DIQMTQSPSSLSASVGDRVTITCRASQEISGYLTWLQQKPGKAPKLLIYAASTLDSGVPSRFSGSGSGTDFTLTISSLQPEDFATYYCLQYTNYPLTFGQGTKLEIK
Turning to B2, the EC50 in assay [1] came out at 43 nM.

B3: humanized 44H10 version 22 IgG (antibody, V domains shown)
VH: QVQLQESGPGLVKPSETLSLTCTVSGFSLTSYGVHWIRQPPGKGLEWIGVIWAGGSINYNSALMSRVTISKDTSKNQVSLKLSSVTAADTAVYYCARAYGDYVHYAMDYWGQGTLVTVSS
VL: B2 VL with S60K, G66R
Take B3: in assay [4], the Kd was 29 nM. A half-maximal response in assay [2] (EC50) required 1.7 nM.

B4: humanized 44H10 version 21 IgG (V17 with light chain S60K and G66R back-mutations) (antibody, V domains shown)
VH: B2 VH
VL: B2 VL with S60K, G66R
Regarding B4, the Kd in assay [5] is 95 nM. The molecule also came in with an EC50 in assay [6] of 14 nM.

These data come from PMC11270187 (2024).
